We go through three molecules from publication PMC12127886, “Mapping Hsp104 interactions using cross‐linking mass spectrometry” (FEBS Open Bio, 2025).

For orientation: stoichiometry N means the number of molecules, sites or subunits per partner or assembly.

The target of data set [1] is Calcarisporiella thermophila CtHsp104ΔN (153–883 aa) (Calcarisporiella thermophila). The data set is described as follows: SEC; purified Hsp104wt and Hsp104mt on a superdex-200 10/300GL column; molecular weights in Table S2. On the technique in general: In gel filtration, larger molecules generally elute earlier.
The target in data set [2] is CtHsp104ΔN2R encoding the R328M/R757M mutations (Calcarisporiella thermophila). The description is as above.
Data set [3] concerns the molecule itself. The data set is described as follows: SEC; Hsp104fl and PCSK9 co-expressed in E. coli, complex purified by Ni-NTA, TEV cleavage and SEC; molecular weights in Table S2.

As for “Calcarisporiella thermophila CtHsp104ΔN (153–883 aa) (domain or fragment)”, the stoichiometry N in data set [1] was 6. Turning to “CtHsp104ΔN2R encoding the R328M/R757M mutations (domain or fragment)”, the stoichiometry N in data set [2] is 6.

B1: Thermochaetoides thermophila TtHsp104 full length (natural protein, UniProt A0A2Z6G185 1-926, looked up)
chain: MNSKMEFTDRAKKALEDAMALAEQYQHLQLQPVHLAVALLDPTPDPSKDQSAAPGTTSTLFRQVVERAHGDAQAFDRALKKKLVRLPSQDPPPDQVSMSAGCSSVLRKANELQKVQKDSYIAVDHLIAALAEDHTIQEALKEANIPKPKLVQDAIQAIRGNKRVDSRNADTEQENENLSKFCIDMTAMAREGKIDPVIGREEEIRRVIRILSRRTKNNPVLIGEPGVGKTTIVEGLAQRIVNADVPDNLAACKLLSLDVGALVAGSKYRGEFEERMKGVLKEIQESKETIILFVDEIHLLMGAGSSGEGGMDAANLLKPMLARGQLHCIGATTLAEYRKYIEKDAAFERRFQQVLVKEPSITETISILRGLKEKYEVHHGVNIADAAIVAAANLAARYLTSRRLPDSAVDLIDEAAAAVRVARESQPEIIDSLERRLRQLKIEIHALSREKDEASKARLAQAKQDAQNVEEELRPLREKYERERQRGKAIQEAKMKLEALRVKAEDASRMGDHSRAADLQYYAIPEQEAIIKRLEAEKAAADAALNANGADVGGSMITDVVGPDQINEIVARWTGIPVTRLKTSEKEKLLHMEQALSKIVVGQKEAVQSVSNAIRLQRSGLSNPNQPPSFLFCGPSGTGKTLLTKALAEFLFDDPKSMIRFDMSEYQERHSLSRMIGAPPGYVGHDAGGQLTEALRRRPFSILLFDEVEKAAKEVLTVLLQLMDDGRITDGQGRVVDAKNCIVVMTSNLGAEYLSRANNGKDGKIDPTTRELVMNTLRNYFLPEFLNRISSIVIFNRLTRREIRKIVDLRIAEIQKRLTDNDRNVTIKVSDEAKDKLGAQGYSPVYGARPLQRLLEKEVLNRLAILILRGQIREGEVACVELVDGKVQVLPNHPDSEPEDVDVDMESDDAVDEVAPDSMDEDIYND
notes: Hsp104 of Thermochaetoides thermophila, full length; Hexamer in the complex with PCSK9 by SEC; also called Hsp104fl; source: E. coli BL21, co-expressed with PCSK9, complex purified (Ni-NTA, TEV cleavage, SEC)
In the case of B1, in data set [3], the “stoichiometry N” value is 6.
